Measured values taken from PMC3176292, “Mutations in Protein-Binding Hot-Spots on the Hub Protein Smad3 Differentially Affect Its Protein Interactions and Smad3-Regulated Gene Expression” (PLoS ONE, 2011).

T1: Flag-Smad4, full length (UniProt Q13485 1-552)
T1 construct: Smad4; plasmid pCMV5-Flag-Smad4 (from J. Massagué); also called Smad4 FL; source: HEK-293, transfected, in lysate
T1 sequence (looked up): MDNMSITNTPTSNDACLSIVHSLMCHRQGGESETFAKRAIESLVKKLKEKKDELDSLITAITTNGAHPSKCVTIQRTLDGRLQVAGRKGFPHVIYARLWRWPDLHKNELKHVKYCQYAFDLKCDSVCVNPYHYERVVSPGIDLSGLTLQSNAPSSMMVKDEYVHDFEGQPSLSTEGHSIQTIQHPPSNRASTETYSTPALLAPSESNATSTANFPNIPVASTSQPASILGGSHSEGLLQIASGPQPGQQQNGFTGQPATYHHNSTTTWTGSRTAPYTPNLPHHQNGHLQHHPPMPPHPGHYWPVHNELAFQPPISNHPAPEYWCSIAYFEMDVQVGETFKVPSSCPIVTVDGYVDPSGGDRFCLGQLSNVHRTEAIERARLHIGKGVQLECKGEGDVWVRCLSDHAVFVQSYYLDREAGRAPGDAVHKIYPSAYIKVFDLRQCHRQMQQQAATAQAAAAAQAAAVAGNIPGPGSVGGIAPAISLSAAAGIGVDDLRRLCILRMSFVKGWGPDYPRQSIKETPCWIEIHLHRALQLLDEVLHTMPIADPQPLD

T2: SARA Smad-binding domain (amino acids 665–721) on the 3xFlag-thioredoxin scaffold (UniProt O95405 767-823)
T2 construct: SARA, amino acids 665–721; cloned into the unique RsrII site of pCI-3xFLAG-Trx; also called SARA aa665–721; TrxSARA; source: HEK-293, transfected, in lysate
T2 sequence (looked up): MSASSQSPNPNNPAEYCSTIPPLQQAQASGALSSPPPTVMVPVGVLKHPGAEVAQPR

T3: Ski Smad-binding domain (amino acids 2–56) on the 3xFlag-thioredoxin scaffold (UniProt P12755 2-56)
T3 construct: Ski, amino acids 2–56; cloned into the unique RsrII site of pCI-3xFLAG-Trx; also called Ski aa2–56; TrxSki; source: HEK-293, transfected, in lysate
T3 sequence (looked up): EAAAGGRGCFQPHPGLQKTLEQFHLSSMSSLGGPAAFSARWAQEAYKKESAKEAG


Experiments:
Assay in all cases: co-IP; LUMIER: Renilla luciferase-Smad3 and Flag-tagged partner co-expressed with constitutively active Alk5 in HEK-293; Flag protein captured from cleared lysate (TNE: 10 mM Tris-HCl pH 7.8, 150 mM NaCl, 1 mM EDTA, 1% Igepal CA-630) on anti-Flag 96-well plates, 2 h at 4 °C; co-precipitated Renilla luciferase activity, TrxGA background subtracted, percent of wild-type Smad3
Settings in all cases: partners not purified
Flag-Smad4, full length [1] = target: T1, Flag-Smad4, full length
[2] = target: T2, SARA Smad-binding domain (amino acids …)
[3] = target: T4, Smurf2 Smad-binding domain (amino acids 252–330) on the Flag-thioredoxin scaffold (UniProt Q9HAU4 252-330)
T4 construct: Smurf2, amino acids 252–330; also called Smurf2 aa252–330; TrxSmurf2; source: HEK-293, transfected, in lysate
T4 sequence (Q9HAU4 252-330): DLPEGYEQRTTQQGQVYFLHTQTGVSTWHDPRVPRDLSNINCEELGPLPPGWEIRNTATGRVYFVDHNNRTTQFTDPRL

[4] = target: T3, Ski Smad-binding domain (amino acids …)
Flag-Smad4, full length [5] = target: T1, Flag-Smad4, full length; remark: listed apart in the source
[6] = target: T4, Smurf2 Smad-binding domain (amino acids …); remark: listed apart in the source

| percent binding relative to wild-type Smad3 (Flag-Smad4, full length [1]) | percent binding relative to wild-type Smad3 [2] | percent binding relative to wild-type Smad3 [3] | percent binding relative to wild-type Smad3 [4] | percent binding relative to wild-type Smad3 (Flag-Smad4, full length [5]) | percent binding relative to wild-type Smad3 [6] | Binder |
| --- | --- | --- | --- | --- | --- | --- |
| 3% | 125% | 23% | 3% |  |  | Renilla luciferase-Smad3 D408H (natural protein, UniProt P84022 1-425, looked up, Smad3; source: HEK-293, transfected together with constitutively active Alk5, in lysate) MSSILPFTPPIVKRLLGWKKGEQNGQEEKWCEKAVKSLVKKLKKTGQLDELEKAITTQNVNTKCITIPRSLDGRLQVSHRKGLPHVIYCRLWRWPDLHSHHELRAMELCEFAFNMKKDEVCVNPYHYQRVETPVLPPVLVPRHTEIPAEFPPLDDYSHSIPENTNFPAGIEPQSNIPETPPPGYLSEDGETSDHQMNHSMDAGSPNLSPNPMSPAHNNLDLQPVTYCEPAFWCSISYYELNQRVGETFHASQPSMTVDGFTDPSNSERFCLGLLSNVNRNAAVELTRRHIGRGVRLYYIGGEVFAECLSDSAIFVQSPNCNQRYGWHPATVCKIPPGCNLKIFNNQEFAALLAQSVNQGFEAVYQLTRMCTIRMSFVKGWGAEYRRQTVTSTPCWIELHLNGPLQWLHKVLTQMGSPSIRCSSVS |
|  |  |  |  | 49% | 31% | Renilla luciferase-Smad3 R292A (natural protein, UniProt P84022 1-425, looked up, Smad3; source: HEK-293, transfected together with constitutively active Alk5, in lysate) MSSILPFTPPIVKRLLGWKKGEQNGQEEKWCEKAVKSLVKKLKKTGQLDELEKAITTQNVNTKCITIPRSLDGRLQVSHRKGLPHVIYCRLWRWPDLHSHHELRAMELCEFAFNMKKDEVCVNPYHYQRVETPVLPPVLVPRHTEIPAEFPPLDDYSHSIPENTNFPAGIEPQSNIPETPPPGYLSEDGETSDHQMNHSMDAGSPNLSPNPMSPAHNNLDLQPVTYCEPAFWCSISYYELNQRVGETFHASQPSMTVDGFTDPSNSERFCLGLLSNVNRNAAVELTRRHIGAGVRLYYIGGEVFAECLSDSAIFVQSPNCNQRYGWHPATVCKIPPGCNLKIFNNQEFAALLAQSVNQGFEAVYQLTRMCTIRMSFVKGWGAEYRRQTVTSTPCWIELHLNGPLQWLDKVLTQMGSPSIRCSSVS |
|  |  |  |  | 19% | 24% | Renilla luciferase-Smad3 Y384A (natural protein, UniProt P84022 1-425, looked up, Smad3; source: HEK-293, transfected together with constitutively active Alk5, in lysate) MSSILPFTPPIVKRLLGWKKGEQNGQEEKWCEKAVKSLVKKLKKTGQLDELEKAITTQNVNTKCITIPRSLDGRLQVSHRKGLPHVIYCRLWRWPDLHSHHELRAMELCEFAFNMKKDEVCVNPYHYQRVETPVLPPVLVPRHTEIPAEFPPLDDYSHSIPENTNFPAGIEPQSNIPETPPPGYLSEDGETSDHQMNHSMDAGSPNLSPNPMSPAHNNLDLQPVTYCEPAFWCSISYYELNQRVGETFHASQPSMTVDGFTDPSNSERFCLGLLSNVNRNAAVELTRRHIGRGVRLYYIGGEVFAECLSDSAIFVQSPNCNQRYGWHPATVCKIPPGCNLKIFNNQEFAALLAQSVNQGFEAVYQLTRMCTIRMSFVKGWGAEARRQTVTSTPCWIELHLNGPLQWLDKVLTQMGSPSIRCSSVS |
|  |  |  |  | 18% | 21% | Renilla luciferase-Smad3 R268A (natural protein, UniProt P84022 1-425, looked up, Smad3; source: HEK-293, transfected together with constitutively active Alk5, in lysate) MSSILPFTPPIVKRLLGWKKGEQNGQEEKWCEKAVKSLVKKLKKTGQLDELEKAITTQNVNTKCITIPRSLDGRLQVSHRKGLPHVIYCRLWRWPDLHSHHELRAMELCEFAFNMKKDEVCVNPYHYQRVETPVLPPVLVPRHTEIPAEFPPLDDYSHSIPENTNFPAGIEPQSNIPETPPPGYLSEDGETSDHQMNHSMDAGSPNLSPNPMSPAHNNLDLQPVTYCEPAFWCSISYYELNQRVGETFHASQPSMTVDGFTDPSNSEAFCLGLLSNVNRNAAVELTRRHIGRGVRLYYIGGEVFAECLSDSAIFVQSPNCNQRYGWHPATVCKIPPGCNLKIFNNQEFAALLAQSVNQGFEAVYQLTRMCTIRMSFVKGWGAEYRRQTVTSTPCWIELHLNGPLQWLDKVLTQMGSPSIRCSSVS |
|  |  |  |  | 27% | 28% | Renilla luciferase-Smad3 Y238A (natural protein, UniProt P84022 1-425, looked up, Smad3; source: HEK-293, transfected together with constitutively active Alk5, in lysate) MSSILPFTPPIVKRLLGWKKGEQNGQEEKWCEKAVKSLVKKLKKTGQLDELEKAITTQNVNTKCITIPRSLDGRLQVSHRKGLPHVIYCRLWRWPDLHSHHELRAMELCEFAFNMKKDEVCVNPYHYQRVETPVLPPVLVPRHTEIPAEFPPLDDYSHSIPENTNFPAGIEPQSNIPETPPPGYLSEDGETSDHQMNHSMDAGSPNLSPNPMSPAHNNLDLQPVTYCEPAFWCSISYAELNQRVGETFHASQPSMTVDGFTDPSNSERFCLGLLSNVNRNAAVELTRRHIGRGVRLYYIGGEVFAECLSDSAIFVQSPNCNQRYGWHPATVCKIPPGCNLKIFNNQEFAALLAQSVNQGFEAVYQLTRMCTIRMSFVKGWGAEYRRQTVTSTPCWIELHLNGPLQWLDKVLTQMGSPSIRCSSVS |
| 181% | 8% | 119% | 1% |  |  | Renilla luciferase-Smad3 Y297A (natural protein, UniProt P84022 1-425, looked up, Smad3; source: HEK-293, transfected together with constitutively active Alk5, in lysate) MSSILPFTPPIVKRLLGWKKGEQNGQEEKWCEKAVKSLVKKLKKTGQLDELEKAITTQNVNTKCITIPRSLDGRLQVSHRKGLPHVIYCRLWRWPDLHSHHELRAMELCEFAFNMKKDEVCVNPYHYQRVETPVLPPVLVPRHTEIPAEFPPLDDYSHSIPENTNFPAGIEPQSNIPETPPPGYLSEDGETSDHQMNHSMDAGSPNLSPNPMSPAHNNLDLQPVTYCEPAFWCSISYYELNQRVGETFHASQPSMTVDGFTDPSNSERFCLGLLSNVNRNAAVELTRRHIGRGVRLAYIGGEVFAECLSDSAIFVQSPNCNQRYGWHPATVCKIPPGCNLKIFNNQEFAALLAQSVNQGFEAVYQLTRMCTIRMSFVKGWGAEYRRQTVTSTPCWIELHLNGPLQWLDKVLTQMGSPSIRCSSVS |
|  |  |  |  | 20% | 19% | Renilla luciferase-Smad3 R243A (natural protein, UniProt P84022 1-425, looked up, Smad3; source: HEK-293, transfected together with constitutively active Alk5, in lysate) MSSILPFTPPIVKRLLGWKKGEQNGQEEKWCEKAVKSLVKKLKKTGQLDELEKAITTQNVNTKCITIPRSLDGRLQVSHRKGLPHVIYCRLWRWPDLHSHHELRAMELCEFAFNMKKDEVCVNPYHYQRVETPVLPPVLVPRHTEIPAEFPPLDDYSHSIPENTNFPAGIEPQSNIPETPPPGYLSEDGETSDHQMNHSMDAGSPNLSPNPMSPAHNNLDLQPVTYCEPAFWCSISYYELNQAVGETFHASQPSMTVDGFTDPSNSERFCLGLLSNVNRNAAVELTRRHIGRGVRLYYIGGEVFAECLSDSAIFVQSPNCNQRYGWHPATVCKIPPGCNLKIFNNQEFAALLAQSVNQGFEAVYQLTRMCTIRMSFVKGWGAEYRRQTVTSTPCWIELHLNGPLQWLDKVLTQMGSPSIRCSSVS |
